Here are results for one substance from PMC2112731.

In this test the target is F-actin in a glycerinated muscle fiber (rabbit (endogenous in psoas muscle fiber)) (UniProt P68135). Put plainly: fluorescence intensity of a labeled muscle fiber.

As for “phalloidin-(fluorescein isothiocyanate) FITC complex (peptide)”, the stoichiometry N (mol of the toxin per mol of actin) came out at 1.
